In one assay the target is GCN4-pV. The experiment in a line: AUC.
In the next assay the target is GCN4-pA. The experiment in a line: AUC.

The source of these data is publication PMC7126439.

In the assay with GCN4-pV, GCN4-pV (peptide) returned a stoichiometry N of 4.
GCN4-pA (peptide) yielded a stoichiometry N with GCN4-pA of 4.
